Measurements as given in patent US20260242515A1 (DUALITY BIOLOGICS SHANGHAI, published 2026).
Values belong to the binder of their own block, whether it stands above or below them.

How the values were obtained:
[1] = target: T1, ADAM9 on human tumor cells (LS174T, HepG2, Calu-3, Colo205) (human, UniProt Q13443 29-819); assay: cell-based or functional assay
T1 sequence (looked up): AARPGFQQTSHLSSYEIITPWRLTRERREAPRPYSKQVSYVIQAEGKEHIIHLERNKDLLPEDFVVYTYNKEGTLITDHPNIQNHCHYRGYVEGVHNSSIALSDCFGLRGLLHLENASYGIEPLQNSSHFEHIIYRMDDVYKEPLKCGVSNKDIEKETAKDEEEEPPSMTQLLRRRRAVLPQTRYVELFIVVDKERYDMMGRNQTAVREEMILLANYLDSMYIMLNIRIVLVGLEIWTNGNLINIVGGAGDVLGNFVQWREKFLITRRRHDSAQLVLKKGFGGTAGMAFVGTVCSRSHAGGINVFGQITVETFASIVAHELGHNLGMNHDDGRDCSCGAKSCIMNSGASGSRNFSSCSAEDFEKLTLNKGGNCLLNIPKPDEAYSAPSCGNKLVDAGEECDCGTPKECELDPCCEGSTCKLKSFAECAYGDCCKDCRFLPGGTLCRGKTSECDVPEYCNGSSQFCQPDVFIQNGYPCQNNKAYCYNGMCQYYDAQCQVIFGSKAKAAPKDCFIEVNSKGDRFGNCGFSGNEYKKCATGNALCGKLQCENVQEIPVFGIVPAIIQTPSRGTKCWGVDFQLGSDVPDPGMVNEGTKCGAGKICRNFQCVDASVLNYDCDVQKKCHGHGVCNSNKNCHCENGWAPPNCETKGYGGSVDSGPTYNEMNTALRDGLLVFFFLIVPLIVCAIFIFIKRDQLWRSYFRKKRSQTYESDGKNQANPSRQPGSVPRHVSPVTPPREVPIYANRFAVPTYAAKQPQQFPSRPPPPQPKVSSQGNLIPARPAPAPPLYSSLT

[2] = target: T2, Human ADAM9 protein (ACROBiosystems, Cat. No. AD9-H52H7) (human, UniProt Q13443 29-697); assay: indirect ELISA, human ADAM9-His coated at 1 ug/mL
T2 construct: Bought protein; also called Human ADAM-His protein; human ADAM9 antigen; not shown: His tag
T2 sequence (looked up): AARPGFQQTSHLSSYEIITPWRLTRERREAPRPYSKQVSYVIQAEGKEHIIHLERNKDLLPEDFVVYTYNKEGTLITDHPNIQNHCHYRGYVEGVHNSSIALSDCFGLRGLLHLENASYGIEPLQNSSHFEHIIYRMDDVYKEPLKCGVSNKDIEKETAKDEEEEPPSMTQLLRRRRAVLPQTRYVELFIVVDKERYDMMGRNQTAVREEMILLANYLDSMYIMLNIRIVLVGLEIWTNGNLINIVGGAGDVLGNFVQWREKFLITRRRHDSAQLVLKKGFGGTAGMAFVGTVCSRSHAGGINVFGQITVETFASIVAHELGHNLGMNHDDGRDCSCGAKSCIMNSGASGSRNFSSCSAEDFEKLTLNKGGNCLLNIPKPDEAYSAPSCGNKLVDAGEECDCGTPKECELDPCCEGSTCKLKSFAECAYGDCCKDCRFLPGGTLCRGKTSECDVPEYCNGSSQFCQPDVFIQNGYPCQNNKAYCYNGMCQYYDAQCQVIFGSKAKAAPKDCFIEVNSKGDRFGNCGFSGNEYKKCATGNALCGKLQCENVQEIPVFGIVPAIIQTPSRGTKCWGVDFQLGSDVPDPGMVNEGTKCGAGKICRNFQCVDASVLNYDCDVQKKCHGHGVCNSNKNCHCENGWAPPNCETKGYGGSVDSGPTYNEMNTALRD
Protocol: The plate was washed three times with PBST (PBS (pH 7.4) containing 0.05% Tween-20), followed by addition of 200 μL/well of blocking buffer containing 1% bovine serum albumin (BSA) diluted in PBST, and incubated at 37° C. for 1 hour for blocking. After blocking, the blocking buffer was discarded, and the plate was washed once with PBST buffer. The test antibody was diluted in PBST containing 1% BSA with a 3-fold serial dilution starting at 15 μg/mL across 11 doses, and added to the ELISA plate at 100 μL/well, followed by incubation at 37° C. for 1 hour. After incubation, the plate was washed three times with PBST, followed by addition of 100 μL/well of HRP-labeled goat anti-human secondary antibody (Rockland, Cat. No. 609-103-123) diluted in PBST containing 1% BSA, and incubated at room temperature for 45 minutes. The plate was washed six times with PBST, followed by addition of 100 μL/well of TMB chromogenic substrate (Suzhou Yacoo Chemical Reagent Co., Ltd., Cat. No. S0025), and incubated at room temperature in the dark for 10 minutes. The reaction was terminated by adding 50 μL/well of 1 M HCl, and the absorbance was measured at 450 nm using a microplate reader (Thermo, Ascent) for data analysis.

[3] = target: T2, Human ADAM9 protein (ACROBiosystems, …); assay: SPR (Biacore 8K), antibody captured by anti-human Fc on CM5, ADAM9 as analyte
Protocol: Chip preparation: The mouse anti-human IgG (Fc) antibody (Cat. No. 29234600, Cytiva) was diluted to 25 μg/mL in immobilization buffer (10 mM sodium acetate, pH 5.0), specifically by adding 950 μL of the immobilization buffer to 50 μL of the mouse anti-human IgG (Fc) antibody. The dilution was used for immobilization in eight channels. First, the surface of the CM5 chip was activated with 400 mM EDC and 100 mM NHS at a flow rate of 10 μL/min for 420 seconds. Then, 25 μg/mL of the mouse anti-human IgG (Fc) antibody was injected into the test channels at a flow rate of 10 μL/min for approximately 360 seconds, with the level of immobilization at approximately 7000 to 14000 RU. Finally, the chip was blocked with 1 M ethanolamine at a flow rate of 10 μL/min for 420 seconds. The reference channels underwent the same procedures as the test channels.
Ligand capture: Antibodies Ab10, Ab15, Ab16, and hMAB-A (2I.2) were diluted to 4 μg/mL in running buffer (containing 10 mM N-(2-hydroxyethyl)piperazine-N-2-ethanesulfonic acid (HEPES), 150 mM sodium chloride (NaCl), 3 mM ethylenediaminetetraacetic acid (EDTA), 0.005% Tween-20, pH adjusted to 7.4) and injected into the test channels for human IgG (Fc) capture at a flow rate of 10 μL/min at approximately 200 RU. No ligand capture was performed in the reference channels.
Analyte multi-cycle analysis: Human and cynomolgus ADAM9 proteins (human ADAM9 protein purchased from ACRO, Cat. No. AD9-H52H7; monkey ADAM9 protein purchased from ACRO, Cat. No. AD9-C52H7) were diluted 2-fold in running buffer (Table 10). The diluted human or cynomolgus ADAM9 protein was sequentially injected into the test channels and the reference channels at a flow rate of 30 μL/min, with corresponding association and dissociation times. Both the association and dissociation steps were performed in the running buffer. After each concentration analysis, the chip was regenerated with 3 M magnesium chloride at a flow rate of 20 μL/min for 30 seconds to wash away the ligand and any undissociated analyte. For the next concentration analysis, the test channels required re-capture of the same amount of ligand.

[4] = target: T1, ADAM9 on human tumor cells (LS174T, …); assay: cell-based or functional assay; remark: listed apart in the source

B2: Ab16-X1 (antibody, human IgG1, kappa, V domains shown)
VH: QVQLQQPGTEVVKPGASVKLSCKASGFTFPLYWMHWVRQRPGRGLEWIGRIIPIFGHTKYNEKFKNKATLTADESSSTAYMELRSLTSDDSAVYYCARGGYYYYPREGFLDYWGQGTSVTVSS
VL: DIVMTQSPASLSVSPGERASISCRSSQSVDYSGDSYMNWYQQKPGQSPRLLIYAASDRESGVPDRFSGSGSGTDFTLKISRVEEEDAGTYYCQQSREDPFTFGQGTKVDIKR
modifications: linker-payload X1 (camptothecin type) conjugated after TCEP reduction; DAR p=7.8 per antibody; sites not stated
IC50 (nM), proliferation inhibition of Calu-3 cells (CTG, 6 days) [4]: 8.6 nM

B4: Ab15-X2 (antibody, human IgG1, kappa, V domains shown)
VH: QVQLQQPGAELKKPGASVKVSCKASGFTFPLYWMNWVRQRPGRGLEWIGRIIPIFGHTKYNEKFKDRATMTADESSSTAYMELSSLTSEDSAVYYCARGGYYYYPREGFLDYWGQGTSVTVSS
VL: DIVMTQSPDSLSVSPGERATINCRSSQSVDYSGDSYMNWYQQKPGQSPRLLIYAASDRESGVPDRFSGSGSGTDFTLKISNVEEEDAATYYCQQSREDPFTFGQGTRVEIKR
modifications: linker-payload X2 (camptothecin type) conjugated after TCEP reduction; DAR p=7.8 per antibody; sites not stated
IC50 (nM), proliferation inhibition of Colo205 cells (CTG, 6 days) [4]: 28.5 nM
IC50 (nM), proliferation inhibition of LS174T cells (CTG, 6 days) [4]: 11.6 nM

B5: Ab16-X2 (antibody, human IgG1, kappa, V domains shown)
VH: QVQLQQPGTEVVKPGASVKLSCKASGFTFPLYWMHWVRQRPGRGLEWIGRIIPIFGHTKYNEKFKNKATLTADESSSTAYMELRSLTSDDSAVYYCARGGYYYYPREGFLDYWGQGTSVTVSS
VL: DIVMTQSPASLSVSPGERASISCRSSQSVDYSGDSYMNWYQQKPGQSPRLLIYAASDRESGVPDRFSGSGSGTDFTLKISRVEEEDAGTYYCQQSREDPFTFGQGTKVDIKR
modifications: linker-payload X2 (camptothecin type) conjugated after TCEP reduction; DAR p=7.9 per antibody; sites not stated
IC50 (nM), proliferation inhibition of Calu-3 cells (CTG, 6 days) [4]: 3.83 nM
IC50 (nM), proliferation inhibition of Colo205 cells (CTG, 6 days) [4]: 29.8 nM
IC50 (nM), proliferation inhibition of LS174T cells (CTG, 6 days) [4]: 8.97 nM

B6: Ab1 (antibody, human IgG1, kappa, V domains shown)
VH: QVQLQESGAEVKRPGSSVKVSCKASGFTFPLYWMNWVRQRPGQGLEWMGRIIPIFGHTDYNEKFKDRATITRDESSNTAYMELSRLRSEDSAVYYCARGGYYYYPREGFLDYWGQGTSVTVSS
VL: DIVMTQSPASLSVSPGERASISCRSSQSVDYSGDSYMNWYQQKPGQSPRLLIYAASDRESGVPDRFSGSGSGTDFTLKISRVEEEDAGTYYCQQSREDPFTFGQGTKVDIKR
notes: also called Ab01; Ab1-V (variable regions)
EC50 [2]: 0.052 nM
Top (OD450) [2]: 3.12 OD450

More lines, now with the values ahead:

EC50 for internalization [1]: 0.16 nM
Maximum internalization rate (%) [1]: 81.3%
EC50 [2]: 0.059 nM
Top (OD450) [2]: 3.4 OD450
Kd [3]: 17.5 nM
koff [3]: 0.00255 s⁻¹
kon [3]: 146000 M⁻¹ s⁻¹
B1: Ab10 (antibody, human IgG1, kappa, V domains shown)
VH: QVQLQESGAELKRPGSSVKVSCKASGFTFPLYWMNWVRQRPGRGLEWMGRIIPIFGHTKYNEKFKDRATLTADESSSTAYMELSSLRSDDSAVYYCARGGYYYYPREGFLDYWGQGTSVTVSS
VL: DIVMTQSPASLSVSPGERASISCRSSQSVDYSGDSYMNWYQQKPGQSPRLLIYAASDRESGVPARFSGSKSGTDFTLKINRVEEEDAGTYYCQQSREDPFTFGQGTRVEIKR
notes: also called Ab10-V (variable regions)

EC50 [2]: 0.055 nM
Top (OD450) [2]: 3.06 OD450
B3: Ab4 (antibody, human IgG1, kappa, V domains shown)
VH: QVQLQESGAEVKRPGSSVKVSCKASGFTFPLYWMNWVRQRPGRGLEWMGRIIPIFGHTKYNEKFKDRATMTRDKSSSTAYMELSSLTSDDSAVYYCARGGYYYYPREGFLDYWGQGTSVTVSS
VL: DIVMTQSPSSLSVSPGERATINCRSSQSVDYSGDSYMNWYQQKPGQAPRLLIYAASDLESGVPDRFSGSGSGTDFTLNINGVEEEDAATYYCQQSREDPFTFGQGTKVEIKR
notes: also called Ab04; Ab4-V (variable regions)

EC50 [2]: 0.06 nM
Top (OD450) [2]: 3.31 OD450
B7: Ab7 (antibody, human IgG1, kappa, V domains shown)
VH: QVQLQESGAEVKRPGSSVKVSCKASGFTFPLYWMNWVRQRPGQGLEWMGRIIPIFGHTDYNEKFKDRATITRDESSNTAYMELSRLRSEDSAVYYCARGGYYYYPREGFLDYWGQGTSVTVSS
VL: DIVMTQSPASLSVSPGERASINCRSDQSVDYSGDSYMNWYQQKPGKSPRLLIYAASDRESGVPDRFSGSGSGTDFTLNINSVEEEDAGTYYCQQSREDPFTFGQGTRVDIKR
notes: also called Ab07; Ab7-V (variable regions)
